Results as given in patent publication US20050260595A1.

How the values were obtained:
[1] = target: human dopamine D1 receptor protein (human) (UniProt P21728); assay: cell-based or functional assay
[2] = target: human adenosine A2a receptor protein (human) (UniProt P29274); assay: cell-based or functional assay
human adenosine A2a receptor protein (human), sequence (P29274 whole entry): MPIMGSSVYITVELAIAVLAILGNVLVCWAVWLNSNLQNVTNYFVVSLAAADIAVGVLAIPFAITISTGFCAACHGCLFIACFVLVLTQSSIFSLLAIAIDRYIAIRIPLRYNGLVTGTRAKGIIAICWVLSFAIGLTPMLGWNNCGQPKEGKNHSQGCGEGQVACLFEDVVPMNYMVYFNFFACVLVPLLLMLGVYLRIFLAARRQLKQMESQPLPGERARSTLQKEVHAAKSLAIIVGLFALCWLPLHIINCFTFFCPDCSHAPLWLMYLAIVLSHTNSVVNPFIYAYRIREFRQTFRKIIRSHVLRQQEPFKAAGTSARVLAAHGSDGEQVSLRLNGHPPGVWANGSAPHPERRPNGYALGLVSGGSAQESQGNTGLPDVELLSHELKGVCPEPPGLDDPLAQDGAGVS

human dopamine D1 receptor protein (human), sequence (P21728 whole entry): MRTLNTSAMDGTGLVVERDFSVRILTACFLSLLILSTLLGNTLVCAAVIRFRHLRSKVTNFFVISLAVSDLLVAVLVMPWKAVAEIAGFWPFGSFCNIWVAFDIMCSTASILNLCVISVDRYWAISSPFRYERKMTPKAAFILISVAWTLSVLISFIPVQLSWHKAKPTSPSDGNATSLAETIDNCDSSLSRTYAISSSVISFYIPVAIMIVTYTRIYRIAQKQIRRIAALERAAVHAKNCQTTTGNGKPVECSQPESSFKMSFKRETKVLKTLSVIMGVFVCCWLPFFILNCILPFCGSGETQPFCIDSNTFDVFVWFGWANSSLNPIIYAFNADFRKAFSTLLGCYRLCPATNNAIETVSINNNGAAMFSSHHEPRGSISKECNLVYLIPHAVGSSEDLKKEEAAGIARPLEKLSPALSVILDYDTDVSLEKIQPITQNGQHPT

cAMP level (HitHunter ECF cyclic AMP chemiluminescent assay; CHO cells co-expressing Gm1 and dopamine D1 receptor, 10 µM dopamine; cells expressing only the D1 receptor = 100%, no contact = 0%) [1]: 127%
cAMP level (HitHunter ECF cyclic AMP chemiluminescent assay; CHO cells co-expressing Gm1 and adenosine A2a receptor, 10 µM adenosine; cells expressing only the A2a receptor = 100%, no contact = 0%) [2]: 134%
Substance: human Gm1 protein
